Changes are numbered by the printed parent chain.
B1: FLL76 (VHH)
VHH: QVQLQESGGGLVQAGGSLRLSCAASGGAFSSYVMGWFRQAPGKEREFVAAVISWSGRITDYADSVKGRFSISRDNAKSTVYLQMNNLKPEDTAVYYCAAKTGMYIDLRTSTFDYWGQGTQVTVSS
notes: llama anti-FLT3 variable domain; E. coli periplasmic extract
B2: FLL823 (VHH)
VHH: QVQLQESGGGVVQVGGSLRLSCAASGGTFGYYAVGWFRQAPGKEREFVAAVTWNGAYLYSDPVKGRFTISRDNAKNTVYLQMNSLKSEDTAVYYCGLDRWSAVVESTPSTRGQGTQVTVSS
notes: as for B1
B3: FLL190 (VHH)
VHH: QVQLQESGGGLVQAGGSLTLSCTASGSTFSINHFSWYRQAPGKQRELVAFISSDGVSIDVESVKGRFTISGDNDKNTAYLQMNGLKPEDTAVYYCYYRGFWGQGTQVTVSS
notes: as for B1
B4: FLL43 (VHH)
VHH: B3 VHH with A14P, S35A, V56R, I58T, F100S
notes: as for B1
B5: FLL160 (VHH)
VHH: QVQLQESGGGLVQAGDSLRLSCATSGRTFNLYRVGWFRQAPGKEREFVARITWSADITQYADSVKGRFTISRDNAKNTVYLQMNSLKPEDTAIYYCATTLRKSSGIYHVDDYDDWGQGTQVTVSS
notes: as for B1
B6: FLL173 (VHH)
VHH: B5 VHH with D16G, A61T, V109T, D114Y
notes: as for B1
B7: FLL45 (VHH)
VHH: QVQLQESGGGLVQAGGSLRLSCAASGGTFSSSAMGWFRQAPGKEREFVATITQNDVPTYYTHSVKGRFTISRDNAKNTMYLQMNSLKPEDTAVYYCAQRVAQASGWRTTIKDYGYWGQGTQVTVSS
notes: as for B1
B8: FLL1 (VHH)
VHH: QVQLQESGGGLVQAGGSLRLSCAASGRTFSTLTVAWFRQAPGKEREFVVASIPSGSNTGYAESVKGRFTISRDIAKNTVYLQMNSLKPEDTAMYFCAARIYFGSSRGYDYWGQGTQVTVSS
notes: as for B1
B9: FLL26 (VHH)
VHH: B8 VHH with S30T, L32Y, V48L, S54T, G59A, D73G, I74N, F95Y, I100T
notes: as for B1
B10: FLL15 (VHH)
VHH: QVQLQESGGGLVQAGGSLSLSCAASEGTISHAAMGWFRQAPGKERQFVAYDTWTGGSTNYADSVKDRFTITGDHAKNTVYLQMNSLKPEDTGVYYCAVRGRYSASYTYTNPASYKYWGQGTQVTVSS
notes: as for B1
B11: FLL177 (VHH)
VHH: QVQLQESGGGLVQTGGSLRLSCAASGSTFSRNTMGWFRQAPGKERVFVLGISWSGIRSYYLDSAKARFTISRDNAKNTVYLQMNSLRPEDTAVYYCAAQEGSSPGPYKYWGQGTQVTVSS
notes: as for B1
B12: FLL107 (VHH)
VHH: QVQLQESGGGLVQAGGSLRLSCAASGRTFSSYAMGWFRQAPGKEREFVAAISWSGSNTYYADSVKGRFTISRDNAKNTVYLQMDSLKPEDTAVYYCAAGGSTRVVVTTTPVVKYWGQGTQVTVSS
notes: as for B1
B13: FLL78 (VHH)
VHH: B12 VHH with L11W, N57S, Q82L
notes: as for B1
B14: FLL34 (VHH)
VHH: B12 VHH with M34L, S56G, N74D
notes: as for B1
B15: FLL141 (VHH)
VHH: B12 VHH with K43M, S56Y, N57S, N74D
notes: as for B1
B16: FLL4 (VHH)
VHH: B12 VHH with G26E, A33T, I51M, S56G, N57S
notes: as for B1
B17: FLL61 (VHH)
VHH: B12 VHH with G26E, S56G, N57S, V111I
notes: as for B1
B18: FLL178 (VHH)
VHH: QVQLQESGGGLVQPGGSLRLSCAASGFTFSDYAMSWVRQAPGKGLEWVSGISSGGYKIGYTDSTKGRFTISRDNAKNTLYLQMNSLTAEDTAVYYCAKGTQWSWSLRDNTSRGQGTQVTVSS
notes: as for B1
B19: FLL27 (VHH)
VHH: B18 VHH with A23K, D31S, T87N, S105A, N109S
notes: as for B1
B20: FLL39 (VHH)
VHH: QVQLQESGGGLVQAGGSLRLSCAASGLTSSTYRMAWFRQAPGKEREFAAGISYSADSGGSTNYADSVKGRFTISRDNAKNTVYLQMSSLKPEDTAVYYCAAGRYSGTYNSPYSSSYVYWGQGTQVTVSS
notes: as for B1
B21: FLL116 (VHH)
VHH: QVQLQESGGGLVQAGGSLRLSCAASGVTFSINYIDWYRQAPGKQREWVAQITRDSNSFYADSVKGRFAISRDNAKNTVYLQMNSLKPEDTAVYYCRVLSYWGQGTQVTVSS
notes: as for B1
B22: FLL32 (VHH)
VHH: B21 VHH with A23Q, S30N, K43R, N56T, S57R, T77M, M82L, V97I
notes: as for B1
B23: FLL101 (VHH)
VHH: B21 VHH with S84N
notes: as for B1
B24: FLL181 (VHH)
VHH: B21 VHH with G16D, I31A, N32S, K43N, Q44E, D54G, S55G, N56D
notes: as for B1
B25: FLL137 (VHH)
VHH: B21 VHH with V27S, S30N, I31N, N32Y, Y33A, I34M, Y37F, N56S
notes: as for B1
B26: FLL129 (VHH)
VHH: B21 VHH with I31A, N32S, K43N, Q44E, D54G, S55G, N56D
notes: as for B1
B27: FLL146 (VHH)
VHH: B21 VHH with S55D, N56T, S84N, K86R, V97L, Y100F
notes: as for B1
B28: FLL77 (VHH)
VHH: B21 VHH with A14P, N32S, K43N, Q44E, D54G, S55G, N56D, V97I
notes: as for B1
B29: FLL179 (VHH)
VHH: B21 VHH with A23K, S55G, N56S, V97I, Y100D
notes: as for B1
B30: FLL187 (VHH)
VHH: B21 VHH with A14P, D72E
notes: as for B1
B31: FLL97 (VHH)
VHH: B21 VHH with I69V
notes: as for B1
B32: FLL14 (VHH)
VHH: B21 VHH with V97L
notes: as for B1
B33: FLL103 (VHH)
VHH: B21 VHH with A23E, V27P, I69V
notes: as for B1
B34: FLL51 (VHH)
VHH: B21 VHH with A14P, V27F, T28D, N32S, K43N, Q44E, D54G, S55G, N56D, V97I
notes: as for B1
B35: FLL822 (VHH)
VHH: QVQLQESGGGSVQAGGSLRLSCTASGRTFTDYTMGWFRQAPGKEREFMLGISSNGYRRYYTGSMKDRFTISRDNVKKTVYLQMNDLKPEDTAVYYCAASEDHGAPRYDYWGQGTQVTVSS
notes: as for B1
B36: FLL125 (VHH)
VHH: QVQLQESGGGLVQAGGSLRLSCAASGSTFSRNYIDWYRQAPGKQREWVAQITSGGNTHYEPSLKGRFTISRDNAKNTAYLQMNSLKPEDTAVYYCRILDYWGQGTQVTVSS
notes: as for B1
B37: FLL55 (VHH)
VHH: B36 VHH with G54A
notes: as for B1
B38: FLL21 (VHH)
VHH: B36 VHH with A14P, R19T
notes: as for B1

target: T1, human FLT3 protein (human, UniProt P36888 27-541, limits assumed); assay: colorimetric ELISA, signal over control wells lacking FLT3
T1 construct: protein coated in the screening ELISA; also called ELISA FLT3
From the text: (§1) Llamas were immunized with purified FLT3 protein expressed in Expi293 cells. A phage display library for expression of heavy variable antibody domains was constructed from circulating B cells isolated from the immunized llamas (See van der Linden, de Geus, Stok, Bos, van Wassenaar, Verrips, and Frenken. 2000. J Immunol Methods 240:185-195). Phage clones were screened for binding to FLT3 by expressing llama anti-FLT3 proteins in E. coli, preparing periplasmic extracts, and performing colorimetric ELISAs.

| Binder | FLT3/control [ratio] |
| --- | --- |
| B1 | 5 |
| B2 | 4 |
| B3 | 43 |
| B4 | 12 |
| B5 | 9 |
| B6 | 6 |
| B7 | 28 |
| B8 | 11 |
| B9 | 4 |
| B10 | 31 |
| B11 | 54 |
| B12 | 11 |
| B13 | 27 |
| B14 | 39 |
| B15 | 28 |
| B16 | 43 |
| B17 | 25 |
| B18 | 48 |
| B19 | 10 |

| Binder | FLT3/control [ratio] |
| --- | --- |
| B20 | 12 |
| B21 | 5 |
| B22 | 5 |
| B23 | 3 |
| B24 | 5 |
| B25 | 8 |
| B26 | 9 |
| B27 | 4 |
| B28 | 22 |
| B29 | 17 |
| B30 | 18 |
| B31 | 7 |
| B32 | 5 |
| B33 | 28 |
| B34 | 16 |
| B35 | 17 |
| B36 | 17 |
| B37 | 6 |
| B38 | 20 |

target: T1, human FLT3 protein; assay: colorimetric ELISA, periplasmic extract
From the text: as §1

| Binder | ELISA FLT3 (absorbance) |
| --- | --- |
| B1 | 0.5 |
| B2 | 3.6 |
| B3 | 4 |
| B4 | 2 |
| B5 | 0.7 |
| B6 | 0.5 |
| B7 | 4 |
| B8 | 3.4 |
| B9 | 2.9 |
| B10 | 2.5 |
| B11 | 4 |
| B12 | 3.8 |
| B13 | 4 |
| B14 | 4 |
| B15 | 4 |
| B16 | 3.7 |
| B17 | 3.9 |
| B18 | 4 |
| B19 | 4 |

| Binder | ELISA FLT3 (absorbance) |
| --- | --- |
| B20 | 1.9 |
| B21 | 1.1 |
| B22 | 1.6 |
| B23 | 1.7 |
| B24 | 3.2 |
| B25 | 1.8 |
| B26 | 2.6 |
| B27 | 0.9 |
| B28 | 4 |
| B29 | 3.7 |
| B30 | 1.9 |
| B31 | 1.4 |
| B32 | 1.8 |
| B33 | 3.8 |
| B34 | 2.9 |
| B35 | 4 |
| B36 | 2.1 |
| B37 | 2 |
| B38 | 3.3 |

Source: patent publication US20210261671A1 (HARPOON THERAPEUTICS, published 2021)
